Experiments:
[1] = substrate: CSCC[C@H](NC(=O)[C@@H](NC(=O)[C@H](CO)NC(=O)[C@H](Cc1ccccc1)NC(=O)[C@@H]1CCCN1C(=O)[C@@H]1CCCN1C(=O)[C@H](CCCNC(=N)N)NC(=O)[C@@H]1CCCN1C(=O)[C@H](C)NC(=O)[C@H](C)NC(=O)[C@@H]1CCCN1C(C)=O)[C@@H](C)O)C(N)=O; assay: kinetic analysis of CARM1 substrates (KM determination, MRM LC-MS enzymatic activity assay); assay type: biochemical, Mus musculus; conditions: other: fixed 100 μM AdoMet, PABP1 456–466 0.05–100 μM
From the text: (§1) The Mus musculus CARM1 (mmCARM1) gene sequence corresponding to the PRMT core (residues 130–497, mmCARM1_130–497) were amplified by PCR from the original GST-CARM1 construct.[19] The sequences were cloned in the pDONR207 (Invitrogen) vector using a BP reaction (Gateway Cloning, Life Technologies). The positive clones were confirmed by sequencing (GATC). The sequences were subcloned in a pDEST20 vector using an LR reaction. The resulting recombinant protein is harboring an amino-terminal glutathione S-transferase (GST) tag followed by a Tobacco etch virus (TEV) protease cleavage site. DH10Bac competent cells containing the baculovirus genome were transformed with the pDEST20-CARM1 plasmids and plated onto LB agar media containing 15 mg·mL^–1 tetracycline, 7 mg·mL^–1 gentamicin, 50 mg·mL^–1 kanamycin, 25 mg·mL^–1 X-Gal, and 40 mg·mL^–1 IPTG. Bacmid DNA purified from recombination-positive white colonies was transfected into Sf9 cells using the Lipofectin reagent (Invitrogen). Viruses were harvested 10 days after transfection. […]
(§2) Enzyme activity assays were performed with CARM1 (286 nM corresponding to 11.68 ng/μL) in 20 mM Tris buffer (pH 8) containing 50 mM Tris NaCl, 1 mM EDTA, 3 mM MgCl2, 0.1 mg/mL BSA, and 1 mM dithiothreitol (DTT). […] The supernatant (60 μL) was transferred to a new 96-well plate and analyzed. […]

[2] = substrate: C[S+](CC[C@H](N)C(=O)[O-])C[C@H]1O[C@@H](n2cnc3c(N)ncnc32)[C@H](O)[C@@H]1O; assay: as above; assay type: biochemical, Mus musculus; conditions: other: fixed 100 μM PABP1, AdoMet 0.05–100 μM
From the text: as §1, §2

B1: CARM1 (Mus musculus) (protein)
chain: GHTLERSVFSERTEESSAVQYFQFYGYLSQQQNMMQDYVRTGTYQRAILQNHTDFKDKIVLDVGCGSGILSFFAAQAGARKIYAVEASTMAQHAEVLVKSNNLTDRIVVIPGKVEEVSLPEQVDIIISEPMGYMLFNERMLESYLHAKKYLKPSGNMFPTIGDVHLAPFTDEQLYMEQFTKANFWYQPSFHGVDLSALRGAAVDEYFRQPVVDTFDIRILMAKSVKYTVNFLEAKEGDLHRIEIPFKFHMLHSGLVHGLAFWFDVAFIGSIMTVWLSTAPTEPLTHWYQVRCLFQSPLFAKAGDTLSGTCLLIANKRQSYDISIVAQVDQTGSKSSNLLDLKNPFFRYTGTTPSPPPGSHYTSPSENM
notes: corresponding to the PRMT core (residues 130–497, mmCARM1_130–497) were amplified by PCR; GST (followed by TEV protease cleavage site) (N, cleaved yes); made in house; host or cells: Sf9 insect cells (baculovirus)
[1]
  Km: 12.03 ± 2.28 µM
[2]
  Km: 5.46 ± 0.01 µM
